The source of these data is PMC10803263, “General transcription factor from Escherichia coli with a distinct mechanism of action” (Nature Structural & Molecular Biology, 2023).

The target of experiment [1] is T1, RNA polymerase β subunit (in purified RNAP) (E. coli, UniProt P0A8V2 1-1342).
T1 construct: RNA polymerase β subunit (RpoB), WT E. coli; Stood in the assay as a subunit of the purified RNAPσ70 holoenzyme; also called β-lobe/βi4
Put plainly: cryo-EM structure; purified Eσ^70 incubated with ssrA promoter DNA (threefold excess), then CedA (fivefold molar excess over RNAP); complex repurified on Superose 6 Increase in 30 mM HEPES pH 8.0, 100 mM KCl, 5 mM MgCl2, 0.5 mM TCEP; 2.76 Å. Particulars: both partners purified.

The target in a further experiment is T2, σ^70 (purified) (E. coli, UniProt P00579 1-613).
T2 construct: RNA polymerase sigma factor σ70 (RpoD), WT E. coli; also called RpoD
Described as above. Particulars: both partners purified.

T1 sequence (P0A8V2 whole entry): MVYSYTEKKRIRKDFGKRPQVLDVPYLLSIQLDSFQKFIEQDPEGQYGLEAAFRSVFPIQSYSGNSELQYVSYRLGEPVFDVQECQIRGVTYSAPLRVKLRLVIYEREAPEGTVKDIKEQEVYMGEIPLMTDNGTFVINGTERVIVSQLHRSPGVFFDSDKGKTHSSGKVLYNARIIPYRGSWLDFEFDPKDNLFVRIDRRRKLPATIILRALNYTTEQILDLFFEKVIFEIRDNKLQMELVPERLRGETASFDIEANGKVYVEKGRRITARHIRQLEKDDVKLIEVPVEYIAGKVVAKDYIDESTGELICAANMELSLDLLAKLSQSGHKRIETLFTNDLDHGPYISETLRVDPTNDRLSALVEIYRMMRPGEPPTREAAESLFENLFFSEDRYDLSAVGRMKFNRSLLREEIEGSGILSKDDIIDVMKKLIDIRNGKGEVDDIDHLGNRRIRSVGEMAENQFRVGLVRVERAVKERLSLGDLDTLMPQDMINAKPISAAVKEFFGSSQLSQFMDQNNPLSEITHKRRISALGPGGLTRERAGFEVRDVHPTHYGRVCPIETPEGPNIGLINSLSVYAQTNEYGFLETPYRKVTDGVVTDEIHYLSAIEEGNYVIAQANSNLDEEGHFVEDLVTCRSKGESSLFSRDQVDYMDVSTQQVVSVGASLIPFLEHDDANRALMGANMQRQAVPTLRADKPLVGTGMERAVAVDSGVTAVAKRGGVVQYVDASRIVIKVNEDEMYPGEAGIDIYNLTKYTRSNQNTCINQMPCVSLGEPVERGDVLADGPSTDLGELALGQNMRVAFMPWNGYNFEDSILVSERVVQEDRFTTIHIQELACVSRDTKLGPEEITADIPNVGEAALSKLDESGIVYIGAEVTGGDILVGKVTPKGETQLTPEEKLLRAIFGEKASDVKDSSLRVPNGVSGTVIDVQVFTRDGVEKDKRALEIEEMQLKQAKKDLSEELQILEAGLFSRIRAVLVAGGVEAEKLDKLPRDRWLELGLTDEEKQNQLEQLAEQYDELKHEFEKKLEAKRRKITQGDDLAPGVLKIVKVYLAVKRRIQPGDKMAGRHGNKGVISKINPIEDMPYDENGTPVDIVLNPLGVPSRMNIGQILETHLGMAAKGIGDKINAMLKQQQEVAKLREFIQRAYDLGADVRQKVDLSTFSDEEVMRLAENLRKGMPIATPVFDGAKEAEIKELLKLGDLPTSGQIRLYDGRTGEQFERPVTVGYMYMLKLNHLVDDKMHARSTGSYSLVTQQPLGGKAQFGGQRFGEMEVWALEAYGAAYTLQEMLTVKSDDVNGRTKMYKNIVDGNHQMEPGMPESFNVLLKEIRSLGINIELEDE
T2 sequence (P00579 whole entry): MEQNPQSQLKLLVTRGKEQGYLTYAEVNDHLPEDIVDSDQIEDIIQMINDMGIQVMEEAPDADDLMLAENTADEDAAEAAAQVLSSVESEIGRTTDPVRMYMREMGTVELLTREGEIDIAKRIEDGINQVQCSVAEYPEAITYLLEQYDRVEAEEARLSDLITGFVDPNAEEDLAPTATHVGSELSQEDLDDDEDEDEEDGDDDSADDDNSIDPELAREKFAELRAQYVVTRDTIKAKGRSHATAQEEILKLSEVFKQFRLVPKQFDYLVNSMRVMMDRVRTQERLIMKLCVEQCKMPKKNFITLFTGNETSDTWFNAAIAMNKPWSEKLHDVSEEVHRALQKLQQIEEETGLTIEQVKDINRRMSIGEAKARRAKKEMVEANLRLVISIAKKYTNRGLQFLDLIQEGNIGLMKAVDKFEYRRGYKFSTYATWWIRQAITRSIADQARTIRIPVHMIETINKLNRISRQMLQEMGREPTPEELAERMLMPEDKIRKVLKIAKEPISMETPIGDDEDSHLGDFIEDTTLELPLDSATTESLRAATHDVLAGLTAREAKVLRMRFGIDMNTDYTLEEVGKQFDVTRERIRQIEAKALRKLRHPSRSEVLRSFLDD

B1: CedA (purified recombinant) (natural protein, E. coli, UniProt P0AE60 1-80, looked up)
chain: MKKPLRQQNRQIISYVPRTEPAPPEHAIKMDSFRDVWMLRGKYVAFVLMGESFLRSPAFTVPESAQRWANQIRQEGEVTE
notes: CedA, E. coli; the open reading frame of cedA amplified from the MG1655 chromosome; also called WT CedA; source: E. coli BL21(DE3), pSumoH10-cedA, purified (HisTrap, Ulp1 tag removal, HiTrap SP, Superdex 75); not shown: 10× His, N-terminal, cleaved; SUMO, N-terminal, cleaved
As to B1, the binding result (in experiment [1]; in the experiment with σ^70 (purified)) was “binds” throughout.
